Test results from patent publication US20140087995A1 (published 2014).
Numbered stars: 1 amine (or outer) side, 2 acyl side, 3 side chain; on linkers, the order of the positions; unused ones are H or OH. Bridge positions count the residues as written; N and C are the ends. Side chains are listed from the residue outwards. Ends that are not written are not given here. * marks the point of attachment. C20 diacid = O=C(O)CCCCCCCCCCCCCCCCCCC(=O)*; γGlu = O=C(O)[C@H](CCC(=O)[*:2])N[*:1]; AEEA = NCCOCCOCC(=O)O

T1: human amylin receptor (human, UniProt P30988 25-474; O60896 24-148, limits assumed)
T1 construct: whole, on cells; Calcitonin receptor plus RAMP-3 gives the amylin 3(a) receptor; membranes of Amylin 3(a)/CRE-luc cells were used; also called hAmylin-R; hAmylinR
T1 sequence (looked up) 1: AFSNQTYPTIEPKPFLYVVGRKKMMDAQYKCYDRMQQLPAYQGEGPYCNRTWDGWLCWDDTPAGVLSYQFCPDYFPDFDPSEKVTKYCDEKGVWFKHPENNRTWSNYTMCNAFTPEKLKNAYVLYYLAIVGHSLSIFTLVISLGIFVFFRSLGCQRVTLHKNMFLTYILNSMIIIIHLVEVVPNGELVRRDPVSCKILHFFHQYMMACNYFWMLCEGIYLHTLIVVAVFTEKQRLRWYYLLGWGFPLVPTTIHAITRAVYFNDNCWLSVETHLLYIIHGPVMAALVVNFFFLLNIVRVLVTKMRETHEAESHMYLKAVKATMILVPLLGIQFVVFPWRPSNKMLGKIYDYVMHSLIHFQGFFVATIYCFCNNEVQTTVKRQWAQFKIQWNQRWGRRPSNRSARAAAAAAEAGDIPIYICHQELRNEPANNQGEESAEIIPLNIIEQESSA
T1 sequence (looked up) 2: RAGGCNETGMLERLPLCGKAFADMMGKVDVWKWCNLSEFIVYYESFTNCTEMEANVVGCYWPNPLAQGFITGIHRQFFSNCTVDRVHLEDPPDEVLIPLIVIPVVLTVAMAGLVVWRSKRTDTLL

B1: N^ε1-[2-[2-[2-[[(4S)-4-carboxy-4-(19-carboxynonadecanoylamino)butanoyl]amino]ethoxy]ethoxy]acetyl]-[Arg14,Arg17,Pro21,Pro27]-h-amylin (peptide)
peptide: K([AEEA-γGlu-C20 diacid])CNTATCATQRLARFLRHSSPNFGAIPSSTNVGSNTY-NH2
modifications: disulfide 2-7; N-terminus assumed
SMILES: CC[C@H](C)[C@H](NC(=O)[C@H](C)NC(=O)CNC(=O)[C@H](Cc1ccccc1)NC(=O)[C@H](CC(N)=O)NC(=O)[C@@H]1CCCN1C(=O)[C@H](CO)NC(=O)[C@H](CO)NC(=O)[C@H](Cc1c[nH]cn1)NC(=O)[C@H](CCCNC(=N)N)NC(=O)[C@H](CC(C)C)NC(=O)[C@H](Cc1ccccc1)NC(=O)[C@H](CCCNC(=N)N)NC(=O)[C@H](C)NC(=O)[C@H](CC(C)C)NC(=O)[C@H](CCCNC(=N)N)NC(=O)[C@H](CCC(N)=O)NC(=O)[C@@H](NC(=O)[C@H](C)NC(=O)[C@@H]1CSSC[C@H](NC(=O)[C@@H](N)CCCCNC(=O)COCCOCCNC(=O)CC[C@H](NC(=O)CCCCCCCCCCCCCCCCCCC(=O)O)C(=O)O)C(=O)N[C@@H](CC(N)=O)C(=O)N[C@@H]([C@@H](C)O)C(=O)N[C@@H](C)C(=O)N[C@@H]([C@@H](C)O)C(=O)N1)[C@@H](C)O)C(=O)N1CCC[C@H]1C(=O)N[C@@H](CO)C(=O)N[C@@H](CO)C(=O)N[C@H](C(=O)N[C@@H](CC(N)=O)C(=O)N[C@H](C(=O)NCC(=O)N[C@@H](CO)C(=O)N[C@@H](CC(N)=O)C(=O)N[C@H](C(=O)N[C@@H](Cc1ccc(O)cc1)C(N)=O)[C@@H](C)O)C(C)C)[C@@H](C)O
notes: also called 14R, 17R, 21P, 27P
B2: N^ε1-[2-[2-[2-[[(4S)-4-carboxy-4-(19-carboxynonadecanoylamino)butanoyl]amino]ethoxy]ethoxy]acetyl]-[Arg17,Pro21,Pro27,Arg34]-h-amylin (peptide)
peptide: K([AEEA-γGlu-C20 diacid])CNTATCATQRLANFLRHSSPNFGAIPSSTNVGRNTY-NH2
modifications: disulfide 2-7; N-terminus assumed
SMILES: CC[C@H](C)[C@H](NC(=O)[C@H](C)NC(=O)CNC(=O)[C@H](Cc1ccccc1)NC(=O)[C@H](CC(N)=O)NC(=O)[C@@H]1CCCN1C(=O)[C@H](CO)NC(=O)[C@H](CO)NC(=O)[C@H](Cc1c[nH]cn1)NC(=O)[C@H](CCCNC(=N)N)NC(=O)[C@H](CC(C)C)NC(=O)[C@H](Cc1ccccc1)NC(=O)[C@H](CC(N)=O)NC(=O)[C@H](C)NC(=O)[C@H](CC(C)C)NC(=O)[C@H](CCCNC(=N)N)NC(=O)[C@H](CCC(N)=O)NC(=O)[C@@H](NC(=O)[C@H](C)NC(=O)[C@@H]1CSSC[C@H](NC(=O)[C@@H](N)CCCCNC(=O)COCCOCCNC(=O)CC[C@H](NC(=O)CCCCCCCCCCCCCCCCCCC(=O)O)C(=O)O)C(=O)N[C@@H](CC(N)=O)C(=O)N[C@@H]([C@@H](C)O)C(=O)N[C@@H](C)C(=O)N[C@@H]([C@@H](C)O)C(=O)N1)[C@@H](C)O)C(=O)N1CCC[C@H]1C(=O)N[C@@H](CO)C(=O)N[C@@H](CO)C(=O)N[C@H](C(=O)N[C@@H](CC(N)=O)C(=O)N[C@H](C(=O)NCC(=O)N[C@@H](CCCNC(=N)N)C(=O)N[C@@H](CC(N)=O)C(=O)N[C@H](C(=O)N[C@@H](Cc1ccc(O)cc1)C(N)=O)[C@@H](C)O)C(C)C)[C@@H](C)O
notes: also called 17R, 21P, 27P, 34R
B3: N^ε1-[2-[2-[2-[[(4S)-4-carboxy-4-(19-carboxynonadecanoylamino)butanoyl]amino]ethoxy]ethoxy]acetyl]-[Arg17,Pro21,Pro27,Glu35]-h-amylin (peptide)
peptide: K([AEEA-γGlu-C20 diacid])CNTATCATQRLANFLRHSSPNFGAIPSSTNVGSETY-NH2
modifications: disulfide 2-7; N-terminus assumed
SMILES: CC[C@H](C)[C@H](NC(=O)[C@H](C)NC(=O)CNC(=O)[C@H](Cc1ccccc1)NC(=O)[C@H](CC(N)=O)NC(=O)[C@@H]1CCCN1C(=O)[C@H](CO)NC(=O)[C@H](CO)NC(=O)[C@H](Cc1c[nH]cn1)NC(=O)[C@H](CCCNC(=N)N)NC(=O)[C@H](CC(C)C)NC(=O)[C@H](Cc1ccccc1)NC(=O)[C@H](CC(N)=O)NC(=O)[C@H](C)NC(=O)[C@H](CC(C)C)NC(=O)[C@H](CCCNC(=N)N)NC(=O)[C@H](CCC(N)=O)NC(=O)[C@@H](NC(=O)[C@H](C)NC(=O)[C@@H]1CSSC[C@H](NC(=O)[C@@H](N)CCCCNC(=O)COCCOCCNC(=O)CC[C@H](NC(=O)CCCCCCCCCCCCCCCCCCC(=O)O)C(=O)O)C(=O)N[C@@H](CC(N)=O)C(=O)N[C@@H]([C@@H](C)O)C(=O)N[C@@H](C)C(=O)N[C@@H]([C@@H](C)O)C(=O)N1)[C@@H](C)O)C(=O)N1CCC[C@H]1C(=O)N[C@@H](CO)C(=O)N[C@@H](CO)C(=O)N[C@H](C(=O)N[C@@H](CC(N)=O)C(=O)N[C@H](C(=O)NCC(=O)N[C@@H](CO)C(=O)N[C@@H](CCC(=O)O)C(=O)N[C@H](C(=O)N[C@@H](Cc1ccc(O)cc1)C(N)=O)[C@@H](C)O)C(C)C)[C@@H](C)O
notes: also called 17R, 21P, 27P, 35E
B4: N^ε1-[2-[2-[2-[[(4S)-4-carboxy-4-(19-carboxynonadecanoylamino)butanoyl]amino]ethoxy]ethoxy]acetyl]-[Arg17,Pro21,Pro27,Pro28,Pro34]-h-amylin (peptide)
peptide: K([AEEA-γGlu-C20 diacid])CNTATCATQRLANFLRHSSPNFGAIPPSTNVGPNTY-NH2
modifications: disulfide 2-7; N-terminus assumed
SMILES: CC[C@H](C)[C@H](NC(=O)[C@H](C)NC(=O)CNC(=O)[C@H](Cc1ccccc1)NC(=O)[C@H](CC(N)=O)NC(=O)[C@@H]1CCCN1C(=O)[C@H](CO)NC(=O)[C@H](CO)NC(=O)[C@H](Cc1c[nH]cn1)NC(=O)[C@H](CCCNC(=N)N)NC(=O)[C@H](CC(C)C)NC(=O)[C@H](Cc1ccccc1)NC(=O)[C@H](CC(N)=O)NC(=O)[C@H](C)NC(=O)[C@H](CC(C)C)NC(=O)[C@H](CCCNC(=N)N)NC(=O)[C@H](CCC(N)=O)NC(=O)[C@@H](NC(=O)[C@H](C)NC(=O)[C@@H]1CSSC[C@H](NC(=O)[C@@H](N)CCCCNC(=O)COCCOCCNC(=O)CC[C@H](NC(=O)CCCCCCCCCCCCCCCCCCC(=O)O)C(=O)O)C(=O)N[C@@H](CC(N)=O)C(=O)N[C@@H]([C@@H](C)O)C(=O)N[C@@H](C)C(=O)N[C@@H]([C@@H](C)O)C(=O)N1)[C@@H](C)O)C(=O)N1CCC[C@H]1C(=O)N1CCC[C@H]1C(=O)N[C@@H](CO)C(=O)N[C@H](C(=O)N[C@@H](CC(N)=O)C(=O)N[C@H](C(=O)NCC(=O)N1CCC[C@H]1C(=O)N[C@@H](CC(N)=O)C(=O)N[C@H](C(=O)N[C@@H](Cc1ccc(O)cc1)C(N)=O)[C@@H](C)O)C(C)C)[C@@H](C)O
notes: also called 17R, 21P, 27P, 28P, 34P
B5: N^ε1-[2-[2-[2-[[(4S)-4-carboxy-4-(19-carboxynonadecanoylamino)butanoyl]amino]ethoxy]ethoxy]acetyl]-[Arg17,Pro21,Pro27,His34]-h-amylin (peptide)
peptide: K([AEEA-γGlu-C20 diacid])CNTATCATQRLANFLRHSSPNFGAIPSSTNVGHNTY-NH2
modifications: disulfide 2-7; N-terminus assumed
SMILES: CC[C@H](C)[C@H](NC(=O)[C@H](C)NC(=O)CNC(=O)[C@H](Cc1ccccc1)NC(=O)[C@H](CC(N)=O)NC(=O)[C@@H]1CCCN1C(=O)[C@H](CO)NC(=O)[C@H](CO)NC(=O)[C@H](Cc1c[nH]cn1)NC(=O)[C@H](CCCNC(=N)N)NC(=O)[C@H](CC(C)C)NC(=O)[C@H](Cc1ccccc1)NC(=O)[C@H](CC(N)=O)NC(=O)[C@H](C)NC(=O)[C@H](CC(C)C)NC(=O)[C@H](CCCNC(=N)N)NC(=O)[C@H](CCC(N)=O)NC(=O)[C@@H](NC(=O)[C@H](C)NC(=O)[C@@H]1CSSC[C@H](NC(=O)[C@@H](N)CCCCNC(=O)COCCOCCNC(=O)CC[C@H](NC(=O)CCCCCCCCCCCCCCCCCCC(=O)O)C(=O)O)C(=O)N[C@@H](CC(N)=O)C(=O)N[C@@H]([C@@H](C)O)C(=O)N[C@@H](C)C(=O)N[C@@H]([C@@H](C)O)C(=O)N1)[C@@H](C)O)C(=O)N1CCC[C@H]1C(=O)N[C@@H](CO)C(=O)N[C@@H](CO)C(=O)N[C@H](C(=O)N[C@@H](CC(N)=O)C(=O)N[C@H](C(=O)NCC(=O)N[C@@H](Cc1c[nH]cn1)C(=O)N[C@@H](CC(N)=O)C(=O)N[C@H](C(=O)N[C@@H](Cc1ccc(O)cc1)C(N)=O)[C@@H](C)O)C(C)C)[C@@H](C)O
notes: also called 17R, 21P, 27P, 34H
B6: N^ε1-[2-[2-[2-[[(4S)-4-carboxy-4-(19-carboxynonadecanoylamino)butanoyl]amino]ethoxy]ethoxy]acetyl]-[Arg17,Pro21,Pro27,Arg35]-h-amylin (peptide)
peptide: K([AEEA-γGlu-C20 diacid])CNTATCATQRLANFLRHSSPNFGAIPSSTNVGSRTY-NH2
modifications: disulfide 2-7; N-terminus assumed
SMILES: CC[C@H](C)[C@H](NC(=O)[C@H](C)NC(=O)CNC(=O)[C@H](Cc1ccccc1)NC(=O)[C@H](CC(N)=O)NC(=O)[C@@H]1CCCN1C(=O)[C@H](CO)NC(=O)[C@H](CO)NC(=O)[C@H](Cc1c[nH]cn1)NC(=O)[C@H](CCCNC(=N)N)NC(=O)[C@H](CC(C)C)NC(=O)[C@H](Cc1ccccc1)NC(=O)[C@H](CC(N)=O)NC(=O)[C@H](C)NC(=O)[C@H](CC(C)C)NC(=O)[C@H](CCCNC(=N)N)NC(=O)[C@H](CCC(N)=O)NC(=O)[C@@H](NC(=O)[C@H](C)NC(=O)[C@@H]1CSSC[C@H](NC(=O)[C@@H](N)CCCCNC(=O)COCCOCCNC(=O)CC[C@H](NC(=O)CCCCCCCCCCCCCCCCCCC(=O)O)C(=O)O)C(=O)N[C@@H](CC(N)=O)C(=O)N[C@@H]([C@@H](C)O)C(=O)N[C@@H](C)C(=O)N[C@@H]([C@@H](C)O)C(=O)N1)[C@@H](C)O)C(=O)N1CCC[C@H]1C(=O)N[C@@H](CO)C(=O)N[C@@H](CO)C(=O)N[C@H](C(=O)N[C@@H](CC(N)=O)C(=O)N[C@H](C(=O)NCC(=O)N[C@@H](CO)C(=O)N[C@@H](CCCNC(=N)N)C(=O)N[C@H](C(=O)N[C@@H](Cc1ccc(O)cc1)C(N)=O)[C@@H](C)O)C(C)C)[C@@H](C)O
notes: also called 17R, 21P, 27P, 35R

These binders were tested against T1, human amylin receptor (assay: SPA competition binding, displacement of 125I-rat amylin from membranes with human amylin 3(a) receptor (Assay V)).
Summary of the method: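 SPA beads with BHK Amylin 3(a)/CRE-luc cell membranes (35 ng/μL final) in 50 mM Hepes pH 7.4, 1 mM CaCl2, 5 mM MgCl₂, 0.1% OA, 0.02% Tween20.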

B1 and B2 are within 1.5-fold of each other in IC50: 0.636 nM for the first, 0.602 nM for the second.

Going from B3 to B4, the IC50 falls from 0.532 nM to 0.042 nM (13-fold).

B5 and B6 are within 1.5-fold of each other in IC50: 0.215 nM for the first, 0.249 nM for the second.

Work on K([AEEA-γGlu-C20 diacid])CNTATCATQRLANFLRHSSPNFGAIPPSTPVGSNTY-NH2 (disulfide 2-7, also called 17R, 21P, 27P, 28P, 31P) yielded an IC50 of 0.052 nM.
